The record followed here is patent US20020081623A1.

For this test, the target named is RANTES/eotaxin binding sites on guinea-pig eosinophils (guinea-pig). In words: binding of 0.1 nM 125I-RANTES to 4x10^5 guinea-pig eosinophils without competitor.

Turning to “human RANTES (from UniProt P13501 24-91) (ligand)”, the B0 is 14.4%.
